Target: the molecule itself
Assay: cryo-EM structure

B1: rabbit Slo1 (KCNMA1) (natural protein)
chain: not shown
  stoichiometry N: 4

Source: article doi:10.1101/2023.11.01.565197 (bioRxiv, 2023)
